Measurements reported in patent publication US20250210128A1 (ECOLE POLYTECHNIQUE FEDERALE DE LAUSANNE EPFL, published 2025).
No end group written: not given here.

Columns and labels:
Test in all cases: cell-based or functional assay
[1] = molecular target: CLdes CXCR4 sensor (Cdes2 design combined with H113N) (human)
Cdes2 CXCR4 design = Cdes2 CXCR4 design (human)
[2] = molecular target: Ldes CXCR4 (library-selected combination receptor variant) (human)

Binder: KPVSLSYRCPCRFFESH-NH2 (cysteine pairing not given here) [CXCL12 1-17 peptide, wild-type (17 N-terminal residues of CXCL12)]
- Gi response (potency/sensitivity) [1]: > 9 fold over WT
- potency in G-coupling (Gi BRET) (Cdes2 CXCR4 design): 3.2 fold over WT
- potency in calcium mobilization (Cdes2 CXCR4 design): 3.1 fold over WT
- Gi potency [2]: ~11 fold over CXCR4 WT scaffold
